Measured values taken from US20230235004A1 (published 2023).
Like-named read-outs stand apart in the source and are kept apart here.

Legend:
[1] = target: T1, mouse MAdCAM expressed on cells (mouse, UniProt Q61826 22-405); assay: cell binding
T1 construct: whole, on cells
T1 sequence (looked up): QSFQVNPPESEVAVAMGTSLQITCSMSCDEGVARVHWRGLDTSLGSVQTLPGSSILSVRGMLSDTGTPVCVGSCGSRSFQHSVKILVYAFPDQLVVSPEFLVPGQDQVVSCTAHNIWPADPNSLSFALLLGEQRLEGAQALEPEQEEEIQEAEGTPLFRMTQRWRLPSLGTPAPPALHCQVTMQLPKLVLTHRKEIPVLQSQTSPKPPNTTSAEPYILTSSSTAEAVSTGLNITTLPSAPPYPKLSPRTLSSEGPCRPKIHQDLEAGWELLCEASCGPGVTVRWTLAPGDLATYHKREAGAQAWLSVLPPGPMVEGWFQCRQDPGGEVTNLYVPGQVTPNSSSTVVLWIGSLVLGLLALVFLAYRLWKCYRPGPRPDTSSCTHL

[2] = target: T2, human MAdCAM expressed on cells (human, UniProt Q13477 19-382); assay: cell binding
T2 construct: whole, on cells
T2 sequence (looked up): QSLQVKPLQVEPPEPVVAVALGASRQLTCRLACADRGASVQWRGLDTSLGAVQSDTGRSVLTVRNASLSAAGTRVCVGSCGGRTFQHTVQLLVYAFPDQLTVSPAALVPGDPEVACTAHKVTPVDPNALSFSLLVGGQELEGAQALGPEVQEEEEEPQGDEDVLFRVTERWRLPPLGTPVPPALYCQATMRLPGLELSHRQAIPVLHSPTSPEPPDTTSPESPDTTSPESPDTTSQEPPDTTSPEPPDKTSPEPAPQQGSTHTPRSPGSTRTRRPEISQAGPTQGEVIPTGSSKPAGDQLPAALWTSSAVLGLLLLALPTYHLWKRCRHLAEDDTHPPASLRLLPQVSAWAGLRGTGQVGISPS

[3] = target: T3, recombinant mouse MAdCAM-1 (mouse, UniProt Q61826 22-364, limits assumed); assay: Octet
T3 construct: also called mMAdCAM-1
T3 sequence (looked up): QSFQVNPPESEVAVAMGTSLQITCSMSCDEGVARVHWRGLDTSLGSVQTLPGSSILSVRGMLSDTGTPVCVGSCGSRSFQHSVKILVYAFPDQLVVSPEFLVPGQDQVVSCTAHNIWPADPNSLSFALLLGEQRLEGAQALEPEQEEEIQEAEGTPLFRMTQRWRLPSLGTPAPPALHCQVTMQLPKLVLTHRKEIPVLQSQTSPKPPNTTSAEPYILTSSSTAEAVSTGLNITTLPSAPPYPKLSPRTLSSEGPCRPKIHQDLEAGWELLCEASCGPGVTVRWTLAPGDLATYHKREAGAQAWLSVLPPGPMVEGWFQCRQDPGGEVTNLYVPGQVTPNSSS

[4] = target: T4, human MAdCAM protein (human, UniProt Q13477 19-317, limits assumed); assay: Octet
T4 construct: also called soluble monomeric human MAdCAM; recombinant human MAdCAM
T4 sequence (looked up): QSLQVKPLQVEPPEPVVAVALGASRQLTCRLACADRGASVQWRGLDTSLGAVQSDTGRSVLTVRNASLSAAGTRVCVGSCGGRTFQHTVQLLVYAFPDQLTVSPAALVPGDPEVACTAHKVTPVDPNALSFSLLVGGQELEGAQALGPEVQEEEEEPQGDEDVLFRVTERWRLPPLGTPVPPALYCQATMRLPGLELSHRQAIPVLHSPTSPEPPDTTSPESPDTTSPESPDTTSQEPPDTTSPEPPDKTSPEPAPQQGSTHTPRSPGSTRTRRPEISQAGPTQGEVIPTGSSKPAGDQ

[5] = target: T4, human MAdCAM protein; assay: Octet; remark: listed apart in the source
[6] = target: T1, mouse MAdCAM expressed on cells; assay: cell binding; remark: listed apart in the source
[7] = target: T2, human MAdCAM expressed on cells; assay: cell binding; remark: listed apart in the source

Measured: binding result

B1: MAdCAM Antibody Table 2 clone 79 (antibody, V domains shown)
VH: EVQLLESGGGLVKPGGSLRLSCAASGFTFDDYAMHWVRQAPGKGLEWVASITSSSAFIDYAASVKGRFTISRDDSKNTLYLQMNSLKTEDTAVYYCARERVDWNSYFDLWGRGTLVTVSS
VL: EIVMTQSPATLSVSPGERATLSCRASQGISNSYLAWYQQKPGQAPRLLIYGASTRATGIPARFSGSGSGTEFTLTISSLQSEDFAVYYCQQYYTYPPTFGPGTKVDIK
notes: IgG format
binds: [1] | [2] | [3] | [4]

B2: MAdCAM antibody Table 1 clone 64 (scFv)
scFv: EVQLLESGGGLVKPGGSLRLSCAASGFAFSSHWMHWVRQAPGKGLEWVAGTSGSGESRDYADFVKGRFTISRDDSKNTLYLQMNSLKTEDTAVYYCARETYYYYYMDVWGKGTTVTVSSGGGGSGGGGSGGGGSGGGGSDIQMTQSPSSLSASVGDRVTITCRASQGISNYLAWYQQKPGKAPKLLIYDAANLEGGVPSRFSGSGSGTDFTLTISSLQPEDFATYYCQQSDIFPPTFGQGTKVEIK
binds: [5] | [6] | [7]

B3: MAdCAM antibody Table 1 clone 66 (scFv)
scFv: EVQLLESGGGLVQPGGSLRLSCAASGFTFSSYWMHWVRQAPGKGLEWVAAISYDGKYKDYEDSVKGRFTISRDNSKNTLYLQMNSLRAEDTAVYYCARENKQWLASFDYWGQGTLVTVSSGGGGSGGGGSGGGGSGGGGSDIQMTQSPSSLSASVGDRVTITCQASQDISNFVNWYQQKPGKAPKLLIYAANLRSGVPSRFSGSGSGTDFTLTISSLQPEDFATYYCQQANSFPVTFGPGTKVDIK
binds: [5] | [6] | [7]

B4: MAdCAM antibody Table 1 clone 65 (scFv)
scFv: QVQLVQSGAEVKKPGASVKVSCKASGYTFTRHWIHWVRQAPGQGLEWMGWINVKTGGAGYAQKFQGRVTMTRDTSTSTVYMELSSLRSEDTAVYYCARESSGWYGTDVWGQGTTVTVSSGGGGSGGGGSGGGGSGGGGSDIQMTQSPSSLSASVGDRATITCRASQSISNYLAWYQQKPGKAPKLLIYAASSLQSGVPSRFSGSGSGTDFTLTISSLQPEDFATYYCQQSNSFPLTFGGGTKVEIK
binds: [5] | [6] | [7]

B5: MAdCAM antibody Table 1 clone 1 (scFv)
scFv: EVQLLESGGGLVQPGGSLRLSCAASGFTFSSYGMHWVRQAPGKGLEWVAVISDDGSDKYYADSVKGRFTISRDNSKNTLYLQMNSLRAEDTAVYYCTTSKYYYYYGMDVWGQGTTVTVSSGGGGSGGGGSGGGGSGGGGSDIQMTQSPSSLSASVGDRVTITCQASQDISKSLNWYQQKPGKAPKLLIYAASSLQSGVPSRFSGSGSGTDFTLTISSLQPEDFATYYCQQGYSTPLTFGGGTKVEIK
binds: [5] | [6] | [7]

B6: MAdCAM antibody Table 1 clone 61 (scFv)
scFv: EVQLLESGGGLVQPGGSLRLSCAASEFTFSNAWMSWVRQAPGKGLEWVASISSTSAYIDYADSVKGRFTISRDNSKNTLYLQMNSLRAEDTAVYYCAREVVGATTFDYWGQGTLVTVSSGGGGSGGGGSGGGGSGGGGSDIQMTQSPSSLSASVGDRVTITCRASQSISTWLAWYQQKPGKAPKLLIYAASSLQSGVPSRFSGSGSGTDFTLTISSLQPEDFATYYCQQANAFPPTFGQGTRLEIK
binds: [5] | [6] | [7]
